This is an account of results in PMC8863163 (Research Square, 2022).

The experiment concerns the target T1, SARS-CoV-2 nsp12 (RNA-dependent RNA polymerase with N-terminal NiRAN domain) (SARS-CoV-2, UniProt P0DTD1).
T1 construct: also called RdRp; WT nsp12
Briefly: cryo-EM structure. Conditions: both partners purified.

B1: SARS-CoV-2 nsp9 with native N-terminus (natural protein)
chain: NNELSPVALRQMSCAAGTTQTACTDDNALAYYNTTKGGRFVLALLSDLQDLKWARFPKSDGTGTIYTELEPPCRFVTDTPKGPKVKYLYFIKGLNNLNRGMVLGSLAATVRLQ
notes: also called native nsp9
As to B1, the binding result is “binds”.
